Assay results from patent publication US20110059051A1.

Biological target: Gal4-DNA binding domain fusion with PGC-1α (yeast) (UniProt P04386)
Assay: cell-based or functional assay

PRDM16 expressed from pcDNA-Prdm16 plasmid in cos7 cells (from UniProt A2A935 1-1275)
transactivation of the UAS-Firefly Luciferase reporter by gal4-pgc1α: 200 fold
